Patent US20140004580A1, “MODIFIED PHOTOSYNTHETIC MICROORGANISMS FOR PRODUCING LIPIDS” (Matrix Genetics, LLC, priority 2010, published 2014)

Experiments:
Type in all cases: biochemical, Synechococcus elongatus PCC7942
purified h6-orf0489 = test: orf0489 aldehyde dehydrogenase activity assay with nonyl-aldehyde (NAD(P)H production at 340 nm); conditions: nonyl-aldehyde 1 mM; h6-orf0489 0.3, 1.5 or 6 μM; NAD+ or NAD(P)+ 1 mM; 30 minutes
Experimental: The reaction was started by mixing together a fatty aldehyde substrate, purified h6-orf0489 and NAD(P)+. The progress of the reaction was assessed by measuring the production of NAD(P)H at 340 nm using the SpectraMax M5. […] Nonyl-aldehyde and either NAD+ or NAD(P)+ were used at 1 mM. Measurements were taken every 30 seconds for 30 minutes.
To directly test whether orf0489 is an aldehyde dehydrogenase, a histidine-tagged version of this protein (h6-orf0489) was overexpressed in E. coli and purified using metal affinity chromatography. The purified protein was then employed in an in vitro reaction using a fatty aldehyde as a substrate.
The reaction was started by mixing together a fatty aldehyde substrate (nonyl-aldehyde at 1 mM), various concentrations of purified h6-orf0489 (0.3, 1.5 or 6 μM final concentration), and NAD+ or NAD(P)+ at 1 mM. The progress of the reaction was assessed by measuring the production of NAD(P)H at 340 nm using the SpectraMax M5; measurements were taken every 30 seconds for 30 minutes.

[1] = molecular target: h6-0489 (histidine-tagged orf0489 aldehyde dehydrogenase) (Synechococcus elongatus, UniProt Q31QZ8); test: Enzymatic characterization of h6-0489 with fatty aldehydes of varying chain length (NADH production at 340 nm)
Experimental: (§1) The protein eluted off of SEC as a single monodisperse peak. The enzymatic characteristics of purified protein were then measured in vitro using fatty aldehydes of varying chain length (4-16) as substrate. In this assay, h6-0489 was incubated with 150 mM NaCl, 50 mM Tris, pH 7.5, 0.05% IGEPAL, 1 mM NAD+ and varying concentrations of the fatty aldehyde substrate being tested. The reaction was carried out in a cuvette with a 1 cm pathlength, and the progress was assessed by measuring the production of NADH at 340 nm using a SpectraMax M5 spectrophotometer. Measurements were taken every second for 2-5 minutes, and the initial velocities of each reaction were determined in the linear range. The A340 was converted into amount of NADH formed using the molar extinction coefficient for NADH (6200 M^−1 cm^−1). The Michaelis constants Km and Vmax were determined by fitting the data using non-linear progression in Prism to the equation Y=(Vmax*X)/(Km+X), where X=substrate concentration and Y=velocity. Kcat was determined from the equation Vmax=Kcat*Et, where Et=the concentration of h6-0489. Data are presented in Table C as averages of at least three different experiments, with errors presented as standard deviation.

[2] = substrate: CCCC=O; test: as above; conditions: other: aldehyde as substrate, 1 mM NAD+, pH 7.5, average of at least three experiments
Experimental: as §1

[3] = substrate: CCCCCCCCCC=O; test: as above; conditions: other: aldehyde as substrate, 1 mM NAD+, pH 7.5, average of at least three experiments
Experimental: as §1

[4] = substrate: CCCCCCCCCCCC=O; test: as above; conditions: other: aldehyde as substrate, 1 mM NAD+, pH 7.5, average of at least three experiments
Experimental: as §1

[5] = substrate: CCCCCC=O; test: as above; conditions: other: aldehyde as substrate, 1 mM NAD+, pH 7.5, average of at least three experiments
Experimental: as §1

[6] = substrate: CCCCCCCC=O; test: as above; conditions: other: aldehyde as substrate, 1 mM NAD+, pH 7.5, average of at least three experiments
Experimental: as §1

`CCCCCCCCC=O` [nonyl-aldehyde] was tested, and the “utilization as substrate (increased NAD(P)H production relative to controls)” value (purified h6-orf0489) was “utilizes nonyl-aldehyde as a substrate”.

With hexadecenal the “kcat (AVE)” value ([1]; aldehyde as substrate, 1 mM NAD+, 150 mM NaCl, 50 mM Tris pH 7.5, 0.05% IGEPAL, average of at least three experiments) was 10.8 s⁻¹, the Km ([1]; aldehyde as substrate, 1 mM NAD+, pH 7.5, average of at least three experiments, read-out: (μM) (AVE) [Km]) was 38.1 µM and the “oxidation of the aldehyde to a free fatty acid by h6-0489 in vitro” value ([1]; in vitro) was “able to oxidize hexadecenal to a free fatty acid”.

B1: h6-0489 (histidine-tagged orf0489 aldehyde dehydrogenase) (Synechococcus elongatus PCC 7942 = FACHB-805) (protein)
chain: MTAVVLPAAAETLAALQATFDRGDTRTLAFRLARLQDLAKLVADNEAELLQALASDLRKPALEAYASEIYFVRDQIKLTCKHLRRWMQPEKQSISLMQQPGQAYRQAEPLGVVLIIGPWNYPFQLLITPLIGAIAAGNCAVLKPSELAPATSSLIQRLISDRFDPDYIRVLEGDASVSQALITQPFDHIFFTGGTAIGRKVMAAAAENLTPVTLELGGKSPCIVDTDIDLDVAARRIAWGKFFNAGQTCIAPDYLLVQRTVAEPFIEALIDNIQQFYGEDPQQSADYARIVSDRHWQRLNSLLVDGTIRHGGQVDRSDRYIAPTLITDVNWRDPILQEEIFGPLLPILIYDQLDEAIAQIRAQPKPLALYLFSRDRQVQERVLAETSAGSVCLNDTILQVGVPDAAFGGVGPSGMGGYHGKASFETFSHYKLVLKRPFWLDLALRYPPYGDKINLFRKL
With B1 the Km [2] was 189.4 µM, the kcat [2] was 7.65 s⁻¹ and the kcat/Km [2] was 40000 M⁻¹ s⁻¹. It also gave a Km [3] of 7.6 µM, a kcat [3] of 12.1 s⁻¹ and a kcat/Km [3] of 1.59e+06 M⁻¹ s⁻¹. For the same molecule, the Km [4] was 11.4 µM, the kcat [4] was 9.29 s⁻¹ and the kcat/Km [4] was 818000 M⁻¹ s⁻¹. It also gave a Km [5] of 19.3 µM, a kcat [5] of 8.51 s⁻¹ and a kcat/Km [5] of 442000 M⁻¹ s⁻¹. For the same molecule, the Km [6] was 15.4 µM, the kcat [6] was 13.5 s⁻¹ and the kcat/Km [6] was 875000 M⁻¹ s⁻¹.
